Measured values as given in PMC5882647, “Simultaneous Monitoring of Cell-surface Receptor and Tumor-targeted Photodynamic Therapy via TdT-initiated Poly-G-Quadruplexes”.

B1: Lib-primer (LP) (ssDNA)
DNA: ATTTAGAGTGACGCAGCAGGACACGGTGGCTTAGTTTTTCAAGGCTTAGTTTTTTTTTTTTTTTTTTAATACAACCTCTCA
B2: aptamer-primer (AP; SL1 aptamer + poly-T linker + primer) (ssDNA)
DNA: ATCAGGCTGGATGGTAGCTCGGTCGGGGTGGGTGGGTTGGCAAGTCTGATTTTTTTTTTTTTTTTTTAATACAACCTCTCA

Molecular target: c-Met-Fc fusion protein (UniProt P08581 25-932)
Assay: EMSA; EMSA: DNA (printed 200 nmol) with c-Met-Fc or BSA (printed 200 nmol) in 10 uL DPBS, 30 min, 37 C; native 4-20% TBE gel, SYBR Green II; pH not stated
Details: protein: recombinant; tags: Fc; chain copies: 2

Chain of c-Met-Fc fusion protein (P08581 25-932): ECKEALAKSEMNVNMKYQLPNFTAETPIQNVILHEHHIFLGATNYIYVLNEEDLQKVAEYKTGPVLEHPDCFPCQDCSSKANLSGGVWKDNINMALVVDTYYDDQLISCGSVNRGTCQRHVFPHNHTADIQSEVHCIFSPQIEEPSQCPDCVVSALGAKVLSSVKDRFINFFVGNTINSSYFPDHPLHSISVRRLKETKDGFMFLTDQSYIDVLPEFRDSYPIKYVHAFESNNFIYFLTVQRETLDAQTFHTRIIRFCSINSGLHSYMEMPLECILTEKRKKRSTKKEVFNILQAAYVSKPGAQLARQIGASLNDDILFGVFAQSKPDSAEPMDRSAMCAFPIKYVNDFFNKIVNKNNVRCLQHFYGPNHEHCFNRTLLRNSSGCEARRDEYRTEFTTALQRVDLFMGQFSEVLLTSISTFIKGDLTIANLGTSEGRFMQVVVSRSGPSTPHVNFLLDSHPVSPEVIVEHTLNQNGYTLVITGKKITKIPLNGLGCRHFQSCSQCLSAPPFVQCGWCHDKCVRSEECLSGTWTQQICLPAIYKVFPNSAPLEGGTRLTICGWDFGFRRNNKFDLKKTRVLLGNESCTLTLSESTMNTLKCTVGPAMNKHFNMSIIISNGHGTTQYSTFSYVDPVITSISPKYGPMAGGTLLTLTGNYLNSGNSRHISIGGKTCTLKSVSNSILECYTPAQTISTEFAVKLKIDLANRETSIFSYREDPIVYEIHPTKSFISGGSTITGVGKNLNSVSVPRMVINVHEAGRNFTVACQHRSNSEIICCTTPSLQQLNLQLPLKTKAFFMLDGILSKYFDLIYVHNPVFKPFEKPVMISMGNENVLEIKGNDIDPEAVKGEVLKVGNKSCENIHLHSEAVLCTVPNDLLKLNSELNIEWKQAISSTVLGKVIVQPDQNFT

Binder	binding result
B1	no binding
B2	binds
